Laboratory results taken from paper PMC12102759 (2025).

B1: AXIN1 peptide 237-252 (Axin-1), 16-mer library wild type / PP2A B56 (PPP2R5A B56 domain, residues 1-486) (parent complex)
chain 1: YLPTLNEDEEWKADQD
chain 2: not shown
B2: TPTE2 peptide 92-107 (Phosphatidylinositol 3,4,5-trisphosphate 3-phosphatase TPTE2), 16-mer library wild type / TLN1 PTB (TLN1 Phosphotyrosine-binding (PTB) domain, residues 309-401) (parent complex)
chain 1: LADLIFTDSKLYIPLE
chain 2: GVSFFLVKEKMKGKNKLVPRLLGITKECVMRVDEKTKEVIQEWNLTNIKRWAASPKSFTLDFGDYQDGYYSVQTTEGEQIAQLIAGYIDIILK

Variants of: B1
Test: proteomic peptide phage display deep mutational scan (ProP-PD DMS): M13 P8 16-mer library selected against immobilised GST-tagged bait for four days (rounds), NGS of the eluted pools per day and pseudo-replica; bait immobilised on MaxiSorp plates (10 µg), library pre-cleared on GST, 2 h binding at 4 °C, five washes; one round per day, days 1-4; value from days 2 and 3

In order of rising screen value:
1. chain 1 W11L  0.000123 average fractional NGS count over selection days 2 and 3 (reads of this peptide / all reads for the bait, averaged over …
2. chain 1 A13R  0.000134 average fractional NGS count over selection days 2 and 3 (reads of this peptide / all reads for the bait, averaged over …
3. chain 1 A13N  0.000152 average fractional NGS count over selection days 2 and 3 (reads of this peptide / all reads for the bait, averaged over …
4. chain 1 W11H  0.000184 average fractional NGS count over selection days 2 and 3 (reads of this peptide / all reads for the bait, averaged over …
5. chain 1 W11S  0.000194 average fractional NGS count over selection days 2 and 3 (reads of this peptide / all reads for the bait, averaged over …
6. chain 1 T4A  0.000216 average fractional NGS count over selection days 2 and 3 (reads of this peptide / all reads for the bait, averaged over …
7. chain 1 N6M  0.000248 average fractional NGS count over selection days 2 and 3 (reads of this peptide / all reads for the bait, averaged over …
8. chain 1 P3T  0.000276 average fractional NGS count over selection days 2 and 3 (reads of this peptide / all reads for the bait, averaged over …
9. chain 1 Y1W  0.000316 average fractional NGS count over selection days 2 and 3 (reads of this peptide / all reads for the bait, averaged over …
10. chain 1 Q15V  0.000515 average fractional NGS count over selection days 2 and 3 (reads of this peptide / all reads for the bait, averaged over …
11. chain 1 Q15P  0.000686 average fractional NGS count over selection days 2 and 3 (reads of this peptide / all reads for the bait, averaged over …
12. chain 1 D8E  0.000771 average fractional NGS count over selection days 2 and 3 (reads of this peptide / all reads for the bait, averaged over …
13. chain 1 N6W  0.000792 average fractional NGS count over selection days 2 and 3 (reads of this peptide / all reads for the bait, averaged over …
14. chain 1 P3Q  0.000844 average fractional NGS count over selection days 2 and 3 (reads of this peptide / all reads for the bait, averaged over …
15. chain 1 D14I  0.000947 average fractional NGS count over selection days 2 and 3 (reads of this peptide / all reads for the bait, averaged over …
16. chain 1 E9R  0.000957 average fractional NGS count over selection days 2 and 3 (reads of this peptide / all reads for the bait, averaged over …
17. chain 1 E9S  0.00105 average fractional NGS count over selection days 2 and 3 (reads of this peptide / all reads for the bait, averaged over …
18. chain 1 N6L  0.00123 average fractional NGS count over selection days 2 and 3 (reads of this peptide / all reads for the bait, averaged over …
19. chain 1 W11F  0.0013 average fractional NGS count over selection days 2 and 3 (reads of this peptide / all reads for the bait, averaged over …
20. chain 1 Q15A  0.00159 average fractional NGS count over selection days 2 and 3 (reads of this peptide / all reads for the bait, averaged over …
21. chain 1 L5I  0.00162 average fractional NGS count over selection days 2 and 3 (reads of this peptide / all reads for the bait, averaged over …
22. chain 1 N6I  0.00196 average fractional NGS count over selection days 2 and 3 (reads of this peptide / all reads for the bait, averaged over …
23. chain 1 K12R  0.00196 average fractional NGS count over selection days 2 and 3 (reads of this peptide / all reads for the bait, averaged over …
24. chain 1 L5V  0.00197 average fractional NGS count over selection days 2 and 3 (reads of this peptide / all reads for the bait, averaged over …
25. chain 1 E10T  0.00217 average fractional NGS count over selection days 2 and 3 (reads of this peptide / all reads for the bait, averaged over …
26. chain 1 E9T  0.00244 average fractional NGS count over selection days 2 and 3 (reads of this peptide / all reads for the bait, averaged over …
27. chain 1 D8Y  0.00257 average fractional NGS count over selection days 2 and 3 (reads of this peptide / all reads for the bait, averaged over …
28. chain 1 D14N  0.00275 average fractional NGS count over selection days 2 and 3 (reads of this peptide / all reads for the bait, averaged over …
29. chain 1 N6T  0.00301 average fractional NGS count over selection days 2 and 3 (reads of this peptide / all reads for the bait, averaged over …
30. chain 1 E10V  0.0046 average fractional NGS count over selection days 2 and 3 (reads of this peptide / all reads for the bait, averaged over …
31. chain 1 D14Y  0.00582 average fractional NGS count over selection days 2 and 3 (reads of this peptide / all reads for the bait, averaged over …
32. chain 1 D14V  0.00647 average fractional NGS count over selection days 2 and 3 (reads of this peptide / all reads for the bait, averaged over …
33. chain 1 D14S  0.00823 average fractional NGS count over selection days 2 and 3 (reads of this peptide / all reads for the bait, averaged over …
34. chain 1 D8H  0.00852 average fractional NGS count over selection days 2 and 3 (reads of this peptide / all reads for the bait, averaged over …

Variants of: B2
Test: as above

In order of rising screen value:
1. chain 1 LADEIFTDSKLYIPLE  0.000131 average fractional NGS count over selection days 2 and 3 (reads of this peptide / all reads for the bait, averaged over …
2. chain 1 LADLIFTDSILYIPLE  0.000133 average fractional NGS count over selection days 2 and 3 (reads of this peptide / all reads for the bait, averaged over …
3. chain 1 LADLIFMDSKLYIPLE  0.000146 average fractional NGS count over selection days 2 and 3 (reads of this peptide / all reads for the bait, averaged over …
4. chain 1 LADLIFTDSKLYIPGE  0.000168 average fractional NGS count over selection days 2 and 3 (reads of this peptide / all reads for the bait, averaged over …
5. chain 1 LADSIFTDSKLYIPLE  0.00023 average fractional NGS count over selection days 2 and 3 (reads of this peptide / all reads for the bait, averaged over …
6. chain 1 LADLIFNDSKLYIPLE  0.000232 average fractional NGS count over selection days 2 and 3 (reads of this peptide / all reads for the bait, averaged over …
7. chain 1 LADLIFTDSKLYIPAE  0.000297 average fractional NGS count over selection days 2 and 3 (reads of this peptide / all reads for the bait, averaged over …
8. chain 1 LADLTFTDSKLYIPLE  0.000326 average fractional NGS count over selection days 2 and 3 (reads of this peptide / all reads for the bait, averaged over …
9. chain 1 LQDLIFTDSKLYIPLE  0.000351 average fractional NGS count over selection days 2 and 3 (reads of this peptide / all reads for the bait, averaged over …
10. chain 1 LADLIFTDSKLYIPSE  0.000436 average fractional NGS count over selection days 2 and 3 (reads of this peptide / all reads for the bait, averaged over …
11. chain 1 LADLIFTDSSLYIPLE  0.000449 average fractional NGS count over selection days 2 and 3 (reads of this peptide / all reads for the bait, averaged over …
12. chain 1 LADLIFTDSGLYIPLE  0.000514 average fractional NGS count over selection days 2 and 3 (reads of this peptide / all reads for the bait, averaged over …
13. chain 1 LADLIFQDSKLYIPLE  0.000521 average fractional NGS count over selection days 2 and 3 (reads of this peptide / all reads for the bait, averaged over …
14. chain 1 LADLSFTDSKLYIPLE  0.000525 average fractional NGS count over selection days 2 and 3 (reads of this peptide / all reads for the bait, averaged over …
15. chain 1 LAELIFTDSKLYIPLE  0.000596 average fractional NGS count over selection days 2 and 3 (reads of this peptide / all reads for the bait, averaged over …
16. chain 1 LADLIFTDSKLYIPLK  0.000641 average fractional NGS count over selection days 2 and 3 (reads of this peptide / all reads for the bait, averaged over …
17. chain 1 LADLIFTDSTLYIPLE  0.000653 average fractional NGS count over selection days 2 and 3 (reads of this peptide / all reads for the bait, averaged over …
18. chain 1 LADMIFTDSKLYIPLE  0.000697 average fractional NGS count over selection days 2 and 3 (reads of this peptide / all reads for the bait, averaged over …
19. chain 1 LMDLIFTDSKLYIPLE  0.000697 average fractional NGS count over selection days 2 and 3 (reads of this peptide / all reads for the bait, averaged over …
20. chain 1 LADLLFTDSKLYIPLE  0.000706 average fractional NGS count over selection days 2 and 3 (reads of this peptide / all reads for the bait, averaged over …
21. chain 1 LSDLIFTDSKLYIPLE  0.000833 average fractional NGS count over selection days 2 and 3 (reads of this peptide / all reads for the bait, averaged over …
22. chain 1 LADLIFTDSKIYIPLE  0.00106 average fractional NGS count over selection days 2 and 3 (reads of this peptide / all reads for the bait, averaged over …
23. chain 1 LADLIFTDSKLYIPLP  0.00113 average fractional NGS count over selection days 2 and 3 (reads of this peptide / all reads for the bait, averaged over …
24. chain 1 LADLNFTDSKLYIPLE  0.00116 average fractional NGS count over selection days 2 and 3 (reads of this peptide / all reads for the bait, averaged over …
25. chain 1 LADLIFTDSKLYIPRE  0.0012 average fractional NGS count over selection days 2 and 3 (reads of this peptide / all reads for the bait, averaged over …
26. chain 1 LADDIFTDSKLYIPLE  0.0012 average fractional NGS count over selection days 2 and 3 (reads of this peptide / all reads for the bait, averaged over …
27. chain 1 LYDLIFTDSKLYIPLE  0.00133 average fractional NGS count over selection days 2 and 3 (reads of this peptide / all reads for the bait, averaged over …
28. chain 1 LADLIFTDSKLYIPIE  0.00147 average fractional NGS count over selection days 2 and 3 (reads of this peptide / all reads for the bait, averaged over …
29. chain 1 LADLIFTESKLYIPLE  0.00151 average fractional NGS count over selection days 2 and 3 (reads of this peptide / all reads for the bait, averaged over …
30. chain 1 LADLIFTDSKLYIPLY  0.00177 average fractional NGS count over selection days 2 and 3 (reads of this peptide / all reads for the bait, averaged over …
31. chain 1 LADLAFTDSKLYIPLE  0.00216 average fractional NGS count over selection days 2 and 3 (reads of this peptide / all reads for the bait, averaged over …
32. chain 1 LADLIFTDSKLYIPLW  0.00358 average fractional NGS count over selection days 2 and 3 (reads of this peptide / all reads for the bait, averaged over …
33. chain 1 LADLIFTDSKLYIPLT  0.00391 average fractional NGS count over selection days 2 and 3 (reads of this peptide / all reads for the bait, averaged over …
34. chain 1 LADLIFTDSKLYIPLD  0.00467 average fractional NGS count over selection days 2 and 3 (reads of this peptide / all reads for the bait, averaged over …
35. chain 1 LADLIFTDSKLYIPME  0.00539 average fractional NGS count over selection days 2 and 3 (reads of this peptide / all reads for the bait, averaged over …
